Here are results for two molecules from US20250197519A1 (Xencor, published 2025).

Assay [1] addresses CD20 on CD20+ Ramos B cells (human) (UniProt P11836). Kind of assay: flow cytometry on Ramos B cells, PE-conjugated goat anti-human IgG Fc secondary.
Assay [2] has as its target T1, CD20 on CD20+ Ramos B cells (human, UniProt P11836 1-297).
T1 construct: whole, on cells; also called human CD20
T1 sequence (looked up): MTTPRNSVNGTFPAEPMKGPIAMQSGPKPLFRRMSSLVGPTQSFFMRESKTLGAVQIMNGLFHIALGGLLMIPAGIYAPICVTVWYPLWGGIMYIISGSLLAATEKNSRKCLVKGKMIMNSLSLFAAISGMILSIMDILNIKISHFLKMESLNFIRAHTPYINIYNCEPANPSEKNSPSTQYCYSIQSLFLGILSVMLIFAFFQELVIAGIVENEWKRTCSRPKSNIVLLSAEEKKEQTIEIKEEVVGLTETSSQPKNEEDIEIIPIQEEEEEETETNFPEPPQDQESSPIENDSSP
Described as above. On the procedure:
Next, binding of the improved CD20 mAb to CD20+ Ramos B cells was investigated. 1.5×10⁵ Ramos B cells were incubated with indicated concentrations of bivalent IgG1 mAb having either [CD20]H0L0 or optimized [CD20]_H1_L1 on ice for 1 hour. PE-conjugated goat anti-human IgG Fc was used as a secondary antibody to detect binding of the CD20 mAbs to the target cells.

The molecule “bivalent IgG1 mAb having the rituximab Fv [CD20]_H0L0 (antibody)” came in with an EC50 in assay [1] of 0.264 µg/mL.

B1: bivalent IgG1 mAb having humanized/affinity-optimized [CD20]_H1_L1 Fv (antibody, V domains shown)
VH: QVQLVQSGAEVKKPGASVKVSCKASGYTFTSYNMHWVRQAPGQRLEWMGAIYPGNGATSYSQKFQGRVTITADTSASTAYMELSSLRSEDTAVYYCARSYYMGGDWYFDVWGAGTLVTVSS
VL: QIVLTQSPSSLSASVGDRVTITCRASWSVSYIHWFQQKPGKSPKPLIYATSNLASGVPVRFSGSGSGTDYTLTISSLQPEDFATYYCQQWTHNPPTFGGGTKVEIK
notes: also called improved CD20 mAb
In assay [2], B1 showed an EC50 of 0.175 µg/mL.

Broadly, the EC50 is the concentration needed to bring the measured effect to its halfway point. A low value points to higher potency in that assay.
